Measurements: US20240239894A1, “THERAPEUTIC BINDING MOLECULES” (MedImmune Limited, priority 2020, published 2024)

B1: E02-GL-SG3249: clone E02-GL (Maia heavy chain backbone) conjugated to the PBD cytotoxin SG3249 (conjugate)
heavy: QVQLQQWGAGLLKPSETLSLACTVYGGSFSGYYWNWIRQPPGKGLEWIGEINHSGSTSYNPSLKSRVTISVDTSKNQFSLKLSSVTAADTAVYYCARVLYNWNVDSWGQGTLVTVSSASTKGPSVFPLAPSSKSTSGGTAALGCLVKDYFPEPVTVSWNSGALTSGVHTFPAVLQSSGLYSLSSVVTVPSSSLGTQTYICNVNHKPSNTKVDKRVEPKSCDKTHTCPPCPAPELLGGPSCVFLFPPKPKDTLMISRTPEVTCVVVDVSHEDPEVKFNWYVDGVEVHNAKTKPREEQYNSTYRVVSVLTVLHQDWLNGKEYKCKVSNKALPAPIEKTISKAKGQPREPQVYTLPPSREEMTKNQVSLTCLVKGFYPSDIAVEWESNGQPENNYKTTPPVLDSDGSFFLYSKLTVDKSRWQQGNVFSCSVMHEALHNHYTQKSLSLSPGK
light: DIQMTQSPSSLSASVGDRVTITCRASQDIRNDVGWYQQKPGKAPKRLIYAASRLQSGVPSRFSGSGSGTEFTLTISSLQPEDFATYYCLQHNSYPRTFGQGTKVEIKRTVAAPSVFIFPPSDEQLKSGTASVVCLLNNFYPREAKVQWKVDNALQSGNSQESVTEQDSKDSTYSLSSTLTLSKADYEKHKVYACEVTHQGLSSPVTKSFNRGEC
B2: E02-GL: germlined ZY0EQD-E02, VH SEQ ID NO: 45, VL SEQ ID NO: 34; antibody intermediate of E02-GL-SG3932 (antibody, V domains shown)
VH: QVQLQQWGAGLLKPSETLSLACTVYGGSFSGYYWNWIRQPPGKGLEWIGEINHSGSTSYNPSLKSRVTISVDTSKNQFSLKLSSVTAADTAVYYCARVLYNWNVDSWGQGTLVTVSS
VL: DIQMTQSPSSLSASVGDRVTITCRASQDIRNDVGWYQQKPGKAPKRLIYAASRLQSGVPSRFSGSGSGTEFTLTISSLQPEDFATYYCLQHNSYPRTFGQGTKVEIK

Legend:
[1] = system: HT29 cell line expressing human B7-H4, SKBR3, HCC1569; assay: Cytotoxicity assay versus 1D11 ADC; type: cell-based; details: six days
Protocol: Cell lines were detached from tissue culture flasks by accutase (Gibco, Paisley, UK), pelleted by centrifugation, and resuspended in growth media (McCoy's 5A,10% FBS, 400 μg/mL G418 for HT29-hB7H4 clone 44, McCoy's 5A, 10% FBS for SKBR3 and RPMI-1640, 10% FBS for HCC1569). Viable cells were counted by trypan blue exclusion using a haemocytometer. Cell densities were adjusted to 2.7×10^4 cells/mL in growth media. 75 μL/well of the cell suspension (2×10^3 cells) was added to 96-well white walled clear bottom tissue culture treated plates and cultured overnight in a humidified tissue culture incubator at 37° C. in 5% CO2. […]
Cells were cultured in the presence of ADCs or DPBS (mock-treated control cells) for six days. Cell viability was assessed using CellTiter-Glo® assay: 100 μL of CellTiter-Glo® (Promega, Southampton, UK) was added to each well. […] Luminescence was measured using an Envision multilabel plate reader (Perkin Elmer, Seer Green, UK). The potency for test article antibodies (e.g. 1D11-MMAE or E02-GL-MMAE or E02-GL-SG3249) was determined by generating half-maximal inhibitory concentration (IC50) values using a nonlinear regression model [log agonist vs. response—variable slope (three parameters)] in GraphPad Prism, version 7 (GraphPad Software, La Jolla, CA) and presented as percent cell viability relative to Mock-treated control cells — […]

Toxicology study = type: in vivo; details: male cynomolgus monkeys, N=2/dose level
Protocol: E02-GL-SG3249 was administered to male cynomolgus monkeys (N═2/dose level). The “E02-GL” antibody has the CDR/VH sequences (e.g. corresponds to) of ZY0EQD-E02 (“GL” means the antibody has been germlined).

OVCAR4 = assay: E02-GL MESF on cell line; type: cell-based, human
[2] = system: B7-H4 expressing versus WT HT29, CT26 and 4T1 tumours; assay: In vivo imaging of 800CW labelled antibody; design: species or system mice; details: 800CW label; HT29 days 3, 7, 14; CT26 days 3 and 7; 4T1 day 7
Description: Antibody clones (e.g. E02_GL) were labelled with 800CW (LI-COR Biosciences). 800 CW labelled R347 was used in control experiments.
B7-H4 expressing CT26/4TI/HT29 cancer cells were grafted (e.g. inoculated subcutaneously) to the left flank […] nude mice (Charles River Laboratories, Wilmington, MA), and non-B7-H4 expressing CT26/4TI/HT29 cancer cells were grafted to the right flank to provide an internal control. Mice were kept for a week to develop tumours, 800CW-labelled E02_GL was injected. 800CW-labelled R347 was injected into control mice. […]
In vivo imaging studies were performed as outlined under Materials and Methods (above), namely with 800CW labelled antibody (E02_GL). “E02-GL” antibody has the CDR/VH sequences (e.g. corresponds to) of ZY0EQD-E02 (“GL” means the antibody has been germlined).

HT29 hB7H4 clone 26 = assay: E02-GL MESF on cell line; type: cell-based, human
[3] = system: B7-H4-negative non-transduced HT29; assay: Flow cytometry binding; type: cell-based, human
Zr75-1 = assay: E02-GL MESF on cell line; type: cell-based
SK-BR-3 cells = assay: Flow cytometry binding; type: cell-based, human; details: 31, 156 and 78 ng/ml; compared with 1D11
Protocol: (§1) Cells were detached from tissue culture flasks by accutase (Gibco, Paisley, UK), pelleted by centrifugation, and resuspended in ice cold DPBS (Gibco, Paisley, UK). Viable cells were counted by trypan blue exclusion using a haemocytometer. Cell densities were adjusted to 5×10^6 cells/mL in DPBS. 100 μL of the cell suspension (5×10^5 cells) was added to 96-well V-bottomed plates and placed on ice. Then, the cells were incubated with Live/Dead fixable violet stain (ThermoFisher Scientific, Loughborough, UK) for 20 minutes on ice. Following a wash with flow cytometry buffer (eBiosciences, Hatfield, UK), the cells were incubated on ice for 30 minutes in 100 μL flow cytometry buffer alone (unstained control cells) or supplemented with AF647-labelled anti-B7H4 antibodies (e.g. E02-GL or 1D11) or isotype R347 at a concentration ranging from 10 µg/ml to 78 ng/ml. […] FlowJo cytometry analysis software (Treestar, Ashland, OR, USA) was used to quantify antibody binding to cells as follows. Live, single cells were gated based on forwards scatter, side scatter, and Live/Dead violet fluorescence intensity and the AF647 geometric mean fluorescence intensity (MFI) was determined. […]

[4] = system: hB7-H4 expressing HT29 cells; assay: Flow cytometry binding; type: cell-based, human; details: 31, 156 and 78 ng/ml; compared with 1D11
Protocol: as §1

SKBR3 = assay: E02-GL MESF on cell line; type: cell-based, human
HT29 hB7H4 clone 4 = assay: E02-GL MESF on cell line; type: cell-based, human

Row | Molecule | cytotoxicity potency compared with 1D11 conjugated to (A114C-) MMAE [1] | toxicities (Toxicology study) | E02-GL MESF (OVCAR4) | localization to the B7-H4 expressing tumour compared to the WT tumour [2] | E02-GL MESF (HT29 hB7H4 clone 26) | cellular binding [3] | E02-GL MESF (Zr75-1) | binding to B7-H4 expressed on cancer cells (SK-BR-3 cells) | binding to B7-H4 expressed on cancer cells [4] | E02-GL MESF (SKBR3) | E02-GL MESF (HT29 hB7H4 clone 4)
1 | B1 | superior cytotoxicity potency | No abnormal toxicities |  |  |  |  |  |  |  |  | 
2 | B2 |  |  | 261,997 MESF | Preferential localization | 429,398 MESF | did not bind | 80,699 MESF | superior binding | superior binding | 78,343 MESF | 71,928 MESF
